Values joined by “and” are separate entries in the source; they are usually repeats but may differ in a detail not shown here. Equal entries are not always repeated.
Key:
[1] = target: CLDN18.1 expressed on HEK 293 cells (UniProt P56856); assay: FACS, hybridoma supernatant on HEK 293 cells expressing CLDN 18.1
[2] = target: human Claudin 18.2 (CLDN18.2) expressed on cells (human) (UniProt P56856); assay: cell-based or functional assay
[3] = target: CLDN18.1 expressed on HEK 293 cells (UniProt P56856); assay: FACS, transfected HEK293 cells, 10 ug/ml; HEK293 alone 14.2
[4] = target: human Claudin 18.2 (CLDN18.2) expressed on cells (human) (UniProt P56856); assay: as above
mouse-18.1 (mouse) = mouse-18.1 (mouse) (UniProt P56857); assay: as above
Chain of mouse-18.1 (mouse) (P56857 whole entry): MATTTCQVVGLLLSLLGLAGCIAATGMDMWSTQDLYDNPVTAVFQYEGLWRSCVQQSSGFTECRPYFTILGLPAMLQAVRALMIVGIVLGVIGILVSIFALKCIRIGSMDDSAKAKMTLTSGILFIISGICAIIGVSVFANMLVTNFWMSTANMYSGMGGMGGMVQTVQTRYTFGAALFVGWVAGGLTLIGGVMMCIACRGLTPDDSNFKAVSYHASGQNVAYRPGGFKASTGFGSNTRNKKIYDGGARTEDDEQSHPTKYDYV

mouse-18.2 (mouse) = mouse-18.2 (mouse) (UniProt P56857); assay: as above
Chain of mouse-18.2 (mouse) (P56857 other isoform, or with tags, fused parts or gaps): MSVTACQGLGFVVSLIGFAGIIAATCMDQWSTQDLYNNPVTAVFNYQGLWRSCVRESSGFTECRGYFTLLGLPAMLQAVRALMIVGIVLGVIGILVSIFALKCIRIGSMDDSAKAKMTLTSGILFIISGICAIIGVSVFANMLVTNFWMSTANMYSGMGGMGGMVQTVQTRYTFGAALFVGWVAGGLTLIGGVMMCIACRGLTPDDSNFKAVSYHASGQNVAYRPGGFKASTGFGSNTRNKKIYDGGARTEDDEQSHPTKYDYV

[5] = target: human Claudin 18.2 (CLDN18.2) expressed on cells (human) (UniProt P56856); assay: FACS, purified chimeric antibody on HEK 293 cells expressing CLDN18.2
[6] = target: purified CLDN18.2 protein (CLDN18.2 ligand) (human) (UniProt P56856); assay: Octet (ForteBio), antibody on anti-human IgG capture sensor, CLDN18.2 ligand in solution, 1:1 fit
[7] = target: purified CLDN18.2 protein (CLDN18.2 ligand) (human) (UniProt P56856); assay: BLI (ForteBio Octet RED 96), antibody on anti-human IgG capture sensor, CLDN18.2 ligand in solution, 1:1 fit
[8] = target: purified CLDN18.2 protein (CLDN18.2 ligand) (human) (UniProt P56856); assay: Octet (ForteBio), antibody on anti-human IgG capture sensor, CLDN18.2 ligand in solution, 1:1 fit; kdis(1/s)
[9] = target: T1, CLDN 7 expressed on HEK 293 cells (UniProt O95471); assay: FACS, transfected HEK 293 cells
T1 sequence (looked up): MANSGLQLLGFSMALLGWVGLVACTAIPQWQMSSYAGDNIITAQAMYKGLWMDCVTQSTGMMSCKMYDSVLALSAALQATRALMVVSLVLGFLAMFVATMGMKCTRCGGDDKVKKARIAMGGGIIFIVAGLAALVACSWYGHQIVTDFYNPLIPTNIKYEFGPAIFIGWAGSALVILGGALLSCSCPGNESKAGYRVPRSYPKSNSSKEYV

Claudin-10 = target: T2, Claudin-10; assay: FACS, transfected HEK 293 cells
T2 sequence (P78369 1-228, species assumed, looked up): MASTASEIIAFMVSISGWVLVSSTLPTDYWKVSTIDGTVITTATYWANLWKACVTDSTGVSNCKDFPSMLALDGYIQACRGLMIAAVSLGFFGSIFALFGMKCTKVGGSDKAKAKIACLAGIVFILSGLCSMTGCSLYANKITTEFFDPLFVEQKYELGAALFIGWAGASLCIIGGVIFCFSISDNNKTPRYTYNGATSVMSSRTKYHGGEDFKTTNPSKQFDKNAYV

Claudin-11 = target: T3, Claudin-11; assay: FACS, transfected HEK 293 cells
T3 sequence (O75508 whole entry, species assumed, looked up): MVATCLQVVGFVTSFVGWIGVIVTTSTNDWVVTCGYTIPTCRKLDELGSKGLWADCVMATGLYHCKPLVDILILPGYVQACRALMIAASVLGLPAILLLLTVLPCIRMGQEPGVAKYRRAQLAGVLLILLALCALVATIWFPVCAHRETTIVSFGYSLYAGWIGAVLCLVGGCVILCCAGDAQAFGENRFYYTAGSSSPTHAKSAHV

Claudin-12 = assay: FACS, transfected HEK 293 cells
Claudin-14 = assay: FACS, transfected HEK 293 cells
Claudin-16 = target: T4, Claudin-16; assay: FACS, transfected HEK 293 cells
T4 sequence (Q9Y5I7 1-235, species assumed, looked up): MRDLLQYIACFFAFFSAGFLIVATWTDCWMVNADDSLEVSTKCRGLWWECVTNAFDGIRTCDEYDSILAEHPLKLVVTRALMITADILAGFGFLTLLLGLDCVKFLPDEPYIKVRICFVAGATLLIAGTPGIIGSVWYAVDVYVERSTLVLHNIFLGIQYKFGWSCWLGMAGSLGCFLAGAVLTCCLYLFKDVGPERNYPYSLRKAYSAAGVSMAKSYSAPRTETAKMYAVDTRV

Claudin-17 = target: T5, Claudin-17; assay: FACS, transfected HEK 293 cells
T5 sequence (P56750 whole entry, species assumed, looked up): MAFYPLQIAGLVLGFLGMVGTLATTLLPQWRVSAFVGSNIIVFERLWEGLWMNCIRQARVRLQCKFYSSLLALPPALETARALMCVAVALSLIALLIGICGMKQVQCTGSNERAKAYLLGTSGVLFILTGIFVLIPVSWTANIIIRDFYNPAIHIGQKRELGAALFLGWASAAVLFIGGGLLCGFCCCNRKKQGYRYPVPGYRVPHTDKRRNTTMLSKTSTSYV

Claudin-19 = target: T6, Claudin-19; assay: FACS, transfected HEK 293 cells
T6 sequence (Q8N6F1 whole entry, species assumed, looked up): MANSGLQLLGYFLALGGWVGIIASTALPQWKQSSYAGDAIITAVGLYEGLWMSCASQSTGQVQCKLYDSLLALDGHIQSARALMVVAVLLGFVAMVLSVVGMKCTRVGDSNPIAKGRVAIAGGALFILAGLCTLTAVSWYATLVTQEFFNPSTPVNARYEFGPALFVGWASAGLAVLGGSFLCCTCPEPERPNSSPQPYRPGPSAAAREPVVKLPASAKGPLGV

Claudin-1 = assay: FACS, transfected HEK 293 cells
Claudin-22 = assay: FACS, transfected HEK 293 cells
Claudin-23 = target: T7, Claudin-23; assay: FACS, transfected HEK 293 cells
T7 sequence (Q96B33 1-292, species assumed, looked up): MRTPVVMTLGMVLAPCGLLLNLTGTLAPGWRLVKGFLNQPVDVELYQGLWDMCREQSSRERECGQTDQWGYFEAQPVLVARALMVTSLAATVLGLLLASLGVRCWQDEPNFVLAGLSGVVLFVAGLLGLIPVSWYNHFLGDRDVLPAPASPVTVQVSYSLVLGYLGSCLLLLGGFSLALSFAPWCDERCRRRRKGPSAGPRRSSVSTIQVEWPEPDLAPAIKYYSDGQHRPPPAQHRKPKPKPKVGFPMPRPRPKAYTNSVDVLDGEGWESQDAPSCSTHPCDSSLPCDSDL

Claudin-2 = target: T8, Claudin-2; assay: FACS, transfected HEK 293 cells
T8 sequence (P57739 whole entry, species assumed, looked up): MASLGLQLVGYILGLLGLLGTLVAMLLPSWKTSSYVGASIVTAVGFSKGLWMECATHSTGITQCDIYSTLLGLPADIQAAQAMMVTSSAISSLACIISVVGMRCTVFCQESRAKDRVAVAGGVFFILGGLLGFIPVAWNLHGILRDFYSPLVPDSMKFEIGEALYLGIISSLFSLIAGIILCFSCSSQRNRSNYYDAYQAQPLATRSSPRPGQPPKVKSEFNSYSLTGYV

Claudin-34 = assay: FACS, transfected HEK 293 cells
Claudin-3 = assay: FACS, transfected HEK 293 cells
Claudin-4 = assay: FACS, transfected HEK 293 cells
Claudin-5 = target: T9, Claudin-5; assay: FACS, transfected HEK 293 cells
T9 sequence (O00501 whole entry, species assumed, looked up): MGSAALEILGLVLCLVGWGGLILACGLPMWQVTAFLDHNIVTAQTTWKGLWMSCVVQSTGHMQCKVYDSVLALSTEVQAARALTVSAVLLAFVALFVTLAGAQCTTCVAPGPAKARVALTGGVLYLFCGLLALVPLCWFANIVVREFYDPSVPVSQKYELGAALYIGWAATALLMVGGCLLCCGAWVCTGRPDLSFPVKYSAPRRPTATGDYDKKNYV

Claudin-8 = assay: FACS, transfected HEK 293 cells
Claudin-9 = assay: FACS, transfected HEK 293 cells
[10] = target: human Claudin 18.2 (CLDN18.2) expressed on cells (human) (UniProt P56856); assay: FACS, purified antibody on HEK 293 cells expressing CLDN18.2
[11] = target: human Claudin 18.2 (CLDN18.2) expressed on cells (human) (UniProt P56856); assay: FACS, transfected HEK 293 cells, first 18.2 column
[12] = target: human Claudin 18.2 (CLDN18.2) expressed on cells (human) (UniProt P56856); assay: FACS, transfected HEK 293 cells, second 18.2 column

B1: 11E12 (mouse hybridoma subclone antibody) (antibody, V domains shown)
VH: QVQLQQSGAELARPGASVKLSCKASGYTFTSYVINWVKQKTGQGLEWIGEIHPRGGNTYYSEKFRGRATLTADKSSSTAYMEFRSLTSEDSAVYFCAILRRGNAMDYWDQGTAVTVSS
VL: DIVMTQSPSSLPVTAGEMVTMSCKSSQSLLNSGNQRNYLTWYQQKPGQPPKLLIYWASTRESGVPDRFTGSGSGTDFTLTISSVQAEDLAVYYCQNSYNYPYTFGGGTKLERK
Q: How did the MFI [1] turn out when B1 was run?
A: Its MFI is 30.

B2: Clone # 46 (purified chimeric rabbit/human antibody) (antibody, V domains shown)
VH: QQQLVESGGGLVKPGGTLTLTCTVSGFYFNRGYWICWVRQAPGKGLEWIGCIDTGSGVPYYANWAKGRFTISKTSSTAVTLQMTSLTAADTATYFCARNSDSIYFNLWGPGTLVTVSS
VL: DIVMTQTPASVSEPVGGTVTIKCQASQSIGGYLSWYQQKPGQPPKLLIYKASTLASGVPSRFKGSGSGTDFTLTISDLECADAATYYCQNYAGVSIYGAVFGGGTKVVVVR
Q: With B2 as the binder, how does the ADCC NUGC4 Cells [2] read?
A: The ADCC NUGC4 Cells was 70 ng/mL.

Q: And the ADCC with 293 cells expressing Claudin 18.2 [2]?
A: Its ADCC with 293 cells expressing Claudin 18.2 is 0.015 nM.

Q: What about the MFI [3] of the same binder?
A: Its MFI is 19.4.

Q: And the MFI [4]?
A: The MFI was 553.

Q: And the MFI (mouse-18.1 (mouse))?
A: Its MFI is 18.9.

Q: And the MFI (mouse-18.2 (mouse))?
A: Its MFI is 3490.

Q: What about the EC50 [5] of the same binder?
A: The EC50 was 0.619 nM.

Q: What about the FACS Signal MFI (×1000) [5] of the same binder?
A: Its FACS Signal MFI (×1000) is 55000 MFI.

Q: And the Kd [6]?
A: The Kd was 12.5 nM.

Q: And the kon [6]?
A: Its kon is 2320 M⁻¹ s⁻¹.

Q: And the Kd [7]?
A: Its Kd is 12 nM.

Q: What about the koff [8] of the same binder?
A: Its koff is 2.9e-05 s⁻¹.

B3: Internal Reference (reference antibody with the heavy and light chain sequences of Zolbetuximab) (antibody, INN chains, looked up, V domains shown)
VH: QVQLQQPGAELVRPGASVKLSCKASGYTFTSYWINWVKQRPGQGLEWIGNIYPSDSYTNYNQKFKDKATLTVDKSSSTAYMQLSSPTSEDSAVYYCTRSWRGNSFDYWGQGTTLTVSS
VL: DIVMTQSPSSLTVTAGEKVTMSCKSSQSLLNSGNQKNYLTWYQQKPGQPPKLLIYWASTRESGVPDRFTGSGSGTDFTLTISSVQAEDLAVYYCQNDYSYPFTFGSGTKLEIKR
Q: Which results are given for B3?
A: ADCC NUGC4 Cells [2]: 610 ng/mL; ADCC with 293 cells expressing Claudin 18.2 [2]: 0.014 nM and 0.006 nM; MFI [9]: 21.4; MFI (Claudin-10): 20.8; MFI (Claudin-11): 19.3; MFI (Claudin-12): 21.4; MFI (Claudin-14): 21.2; MFI (Claudin-16): 19.5; MFI (Claudin-17): 19.6; MFI (Claudin-19): 18.1; MFI (Claudin-1): 20.9; MFI (Claudin-22): 19.9; MFI (Claudin-23): 19.8; MFI (Claudin-2): 19.7; MFI (Claudin-34): 21.1; MFI (Claudin-3): 20.8; MFI (Claudin-4): 18.7; MFI (Claudin-5): 18.4; MFI (Claudin-8): 20.4; MFI (Claudin-9): 20.4; EC50 [10]: 1.17 nM; FACS Signal MFI (×1000) [10]: 25000 MFI; MFI [11]: 4040; MFI [12]: 3880; Kd [6]: 86.9 nM; kon [6]: 1600 M⁻¹ s⁻¹; Kd [7]: 89 nM and 71 nM; koff [8]: 0.000139 s⁻¹

From patent US20200040101A1
